Legend:
[1] = molecular target: T1, human tissue factor (TF) on MDA-MB-231, NCI-H358 and HCT116 cells (human, UniProt P13726 33-295); assay: flow cytometry on MDA-MB-231 cells
T1 construct: whole, on cells; also called TF antigen; CD142

[2] = molecular target: T2, cyno TF ECD-His (cTF-his) (monkey (cyno)); assay: SPR Biacore T200, antibody on Protein A chip, TF-His as analyte, 1:1 model
T2 construct: also called bio-cTF-his; monkey TF-His protein
T2 chain: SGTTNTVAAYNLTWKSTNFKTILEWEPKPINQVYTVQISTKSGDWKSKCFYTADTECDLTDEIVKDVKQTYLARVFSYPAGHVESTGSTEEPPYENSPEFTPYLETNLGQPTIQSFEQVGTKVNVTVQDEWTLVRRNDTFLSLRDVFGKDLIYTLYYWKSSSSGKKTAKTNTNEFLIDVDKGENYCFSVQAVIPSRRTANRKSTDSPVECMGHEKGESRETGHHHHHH

[3] = molecular target: T3, human TF ECD-His (hTF-his) (human, UniProt P13726 33-251); assay: as above
T3 construct: also called bio-hTF-his; human TF-His protein

EC50 [1] [nM]	Kd [2] [nM]	koff [2] [s⁻¹]	kon [2] [M⁻¹ s⁻¹]	Kd [3] [nM]	koff [3] [s⁻¹]	kon [3] [M⁻¹ s⁻¹]	Binder
1.33							hu310-10 (antibody, human IgG1, kappa, V domains shown) VH: EVQLVQSGAEVKKPGASVKVSCKASGYSFTGYYMNWVRQAPGQGLEWMGEINPSTGGSTYNQKFKARVTLTVDQSTNTAYMELSSLRSEDTAVYYCARRELGGPFGYWGQGTTVTVSS VL: SIVMTQSPDSLAVSLGERATINCKASQSVSNGIAWYQQKPGQSPKLLIYFASNRYTGVPDRFSGSGYGTDFTLTISSLQAEDVAVYYCQQDYSSPWTFGGGTKVEIKR
1.83							hu310-3 (antibody, human IgG1, kappa, V domains shown) VH: EVQLVQSGAEVKKPGASVKVSCKASGYSFTGYYMNWVRQAPGQGLEWMGEINPSTGGSTYNQKFKARVTMTVDQSTSTVYMELSSLRSEDTAVYYCARRELGGPFGYWGQGTTVTVSS VL: SIVMTQSPKFLAVSLGERATINCKASQSVSNGIAWYQQKPGQSPKLLIYFASNRYTGVPDRFSGSGYGTDFTFTISSLQAEDVAVYYCQQDYSSPWTFGGGTKVEIKR
1.97							hu310-9 (antibody, human IgG1, kappa, V domains shown) VH: EVQLVQSGAEVKKPGASVKVSCKASGYSFTGYYMNWVRQAPGQGLEWMGEINPSTGGSTYNQKFKARVTLTVDQSTNTAYMELSSLRSEDTAVYYCARRELGGPFGYWGQGTTVTVSS VL: DIVMTQSPDSLAVSLGERATINCKASQSVSNGIAWYQQKPGQPPKLLIYFASNRYTGVPDRFSGSGSGTDFTLTISSLQAEDVAVYYCQQDYSSPWTFGGGTKVEIKR
1.76							hu310-11 (antibody, human IgG1, kappa, V domains shown) VH: EVQLVQSGAEVKKPGASVKVSCKASGYSFTGYYMNWVRQAPGQGLEWMGEINPSTGGSTYNQKFKARVTLTVDQSTNTAYMELSSLRSEDTAVYYCARRELGGPFGYWGQGTTVTVSS VL: SIVMTQSPKFLAVSLGERATINCKASQSVSNGIAWYQQKPGQSPKLLIYFASNRYTGVPDRFSGSGYGTDFTFTISSLQAEDVAVYYCQQDYSSPWTFGGGTKVEIKR
	14	0.000468	33400	18.7	0.000731	39200	hu67-12 (antibody, human IgG1, kappa, V domains shown) VH: EVQLQESGPGLVKPSQTLSLTCTVSGFSLTNYGVNWIRQPPRKGLEWIGVIWSRGNTDYNAAFISRVTISKDNSKSQVSLKLSSVTAADTAVYYCARKDAVVATDALDYWGQGTTVTVSS VL: DIQMTQSPSSLSASVGDRVTITCKASQDVSTAVAWYQQKPGKAPKLLIYSTSYRYTGVPSRFSGSGSGTDFTFTISSLQPEDIATYYCQQHYSTPYTFGGGTKVEIKR
	13.4	0.000419	31200	19.1	0.000638	33400	hu67-15 (antibody, human IgG1, kappa, V domains shown) VH: EVQLQESGPGLVKPSQTLSLTCTVSGFSLTNYGVNWIRQPPGKGLEWIGVIWSRGNTDYNAAFISRVTISKDTSKNQVSLKLSSVTAADTAVYYCARKDAVVATDALDYWGQGTTVTVSS VL: DIQMTQSHKFLSASVGDRVTITCKASQDVSTAVAWYQQKPGKSPKLLIYSTSYRYTGVPSRFSGSGSGTDFTFTISSLQPEDIATYYCQQHYSTPYTFGGGTKVEIKR
	14.8	0.000478	32200	19.2	0.000702	36500	hu67-16 (antibody, human IgG1, kappa, V domains shown) VH: EVQLQESGPGLVKPSQTLSLTCTVSGFSLTNYGVNWIRQPPRKGLEWIGVIWSRGNTDYNAAFISRVTISKDNSKSQVSLKLSSVTAADTAVYYCARKDAVVATDALDYWGQGTTVTVSS VL: DIQMTQSHKFLSASVGDRVTITCKASQDVSTAVAWYQQKPGKSPKLLIYSTSYRYTGVPSRFSGSGSGTDFTFTISSLQPEDIATYYCQQHYSTPYTFGGGTKVEIKR
	14.8	0.000358	24100	13.6	0.000585	42900	hu67-1 (antibody, human IgG1, kappa, V domains shown) VH: EVTLKQSGPVLVKPTQTLTLTCTVSGFSLTNYGVNWIRQPPRKALEWLAVIWSRGNTDYNAAFISRLTISKDTSKSQVVLKMTNMDPVDTATYYCARKDAVVATDALDYWGQGTTVTVSS VL: DIVMTQSPKSLAVSLGERATINCKASQDVSTAVAWYQQKPGQPPKLLIYSTSYRYTGVPDRFSGSGSGTDFTLTISSLQAEDVAVYYCQQHYSTPYTFGGGTKVEIKR
	12.7	0.000429	33700	15.8	0.000673	42600	hu67-2 (antibody, human IgG1, kappa, V domains shown) VH: EVTLKQSGPVLVKPTQTLTLTCTVSGFSLTNYGVNWIRQPPRKGLEWLGVIWSRGNTDYNAAFISRLTISKDNSKSQVVLKMTNMDPVDTATYYCARKDAVVATDALDYWGQGTTVTVSS VL: DIVMTQSPKSLAVSLGERATINCKASQDVSTAVAWYQQKPGQPPKLLIYSTSYRYTGVPDRFSGSGSGTDFTLTISSLQAEDVAVYYCQQHYSTPYTFGGGTKVEIKR
	15.1	0.00039	25800	17.7	0.000582	32800	hu67-5 (antibody, human IgG1, kappa, V domains shown) VH: EVTLKQSGPVLVKPTQTLTLTCTVSGFSLTNYGVNWIRQPPRKALEWLAVIWSRGNTDYNAAFISRLTISKDTSKSQVVLKMTNMDPVDTATYYCARKDAVVATDALDYWGQGTTVTVSS VL: DIVMTQSPKSLAVSLGERATINCKASQDVSTAVAWYQQKPGQSPKLLIYSTSYRYTGVPDRFSGSGSGTDFTFTISSLQAEDVAVYYCQQHYSTPYTFGGGTKVEIKR
	14.3	0.000428	29900	21.7	0.000652	30000	hu67-6 (antibody, human IgG1, kappa, V domains shown) VH: EVTLKQSGPVLVKPTQTLTLTCTVSGFSLTNYGVNWIRQPPRKGLEWLGVIWSRGNTDYNAAFISRLTISKDNSKSQVVLKMTNMDPVDTATYYCARKDAVVATDALDYWGQGTTVTVSS VL: DIVMTQSPKSLAVSLGERATINCKASQDVSTAVAWYQQKPGQSPKLLIYSTSYRYTGVPDRFSGSGSGTDFTFTISSLQAEDVAVYYCQQHYSTPYTFGGGTKVEIKR
	13.5	0.000431	31900	14.2	0.000663	46600	hu67-3 (antibody, human IgG1, kappa, V domains shown) VH: EVQLQESGPGLVKPSQTLSLTCTVSGFSLTNYGVNWIRQPPGKGLEWIGVIWSRGNTDYNAAFISRVTISKDTSKNQVSLKLSSVTAADTAVYYCARKDAVVATDALDYWGQGTTVTVSS VL: DIVMTQSPKSLAVSLGERATINCKASQDVSTAVAWYQQKPGQPPKLLIYSTSYRYTGVPDRFSGSGSGTDFTLTISSLQAEDVAVYYCQQHYSTPYTFGGGTKVEIKR
	10.5	0.00036	34200	14.3	0.000584	40800	hu67-7 (antibody, human IgG1, kappa, V domains shown) VH: EVQLQESGPGLVKPSQTLSLTCTVSGFSLTNYGVNWIRQPPGKGLEWIGVIWSRGNTDYNAAFISRVTISKDTSKNQVSLKLSSVTAADTAVYYCARKDAVVATDALDYWGQGTTVTVSS VL: DIVMTQSPKSLAVSLGERATINCKASQDVSTAVAWYQQKPGQSPKLLIYSTSYRYTGVPDRFSGSGSGTDFTFTISSLQAEDVAVYYCQQHYSTPYTFGGGTKVEIKR
	13.7	0.000446	32500	17.1	0.000668	39000	hu67-8 (antibody, human IgG1, kappa, V domains shown) VH: EVQLQESGPGLVKPSQTLSLTCTVSGFSLTNYGVNWIRQPPRKGLEWIGVIWSRGNTDYNAAFISRVTISKDNSKSQVSLKLSSVTAADTAVYYCARKDAVVATDALDYWGQGTTVTVSS VL: DIVMTQSPKSLAVSLGERATINCKASQDVSTAVAWYQQKPGQSPKLLIYSTSYRYTGVPDRFSGSGSGTDFTFTISSLQAEDVAVYYCQQHYSTPYTFGGGTKVEIKR
	10.8	0.000351	32400	16.4	0.000564	34500	hu67-9 (antibody, human IgG1, kappa, V domains shown) VH: EVTLKQSGPVLVKPTQTLTLTCTVSGFSLTNYGVNWIRQPPRKALEWLAVIWSRGNTDYNAAFISRLTISKDTSKSQVVLKMTNMDPVDTATYYCARKDAVVATDALDYWGQGTTVTVSS VL: DIQMTQSPSSLSASVGDRVTITCKASQDVSTAVAWYQQKPGKAPKLLIYSTSYRYTGVPSRFSGSGSGTDFTFTISSLQPEDIATYYCQQHYSTPYTFGGGTKVEIKR
	8.9	0.000356	40000	15.2	0.000594	39200	hu67-10 (antibody, human IgG1, kappa, V domains shown) VH: EVTLKQSGPVLVKPTQTLTLTCTVSGFSLTNYGVNWIRQPPRKGLEWLGVIWSRGNTDYNAAFISRLTISKDNSKSQVVLKMTNMDPVDTATYYCARKDAVVATDALDYWGQGTTVTVSS VL: DIQMTQSPSSLSASVGDRVTITCKASQDVSTAVAWYQQKPGKAPKLLIYSTSYRYTGVPSRFSGSGSGTDFTFTISSLQPEDIATYYCQQHYSTPYTFGGGTKVEIKR
	10.9	0.000344	31500	19	0.000577	30400	hu67-13 (antibody, human IgG1, kappa, V domains shown) VH: EVTLKQSGPVLVKPTQTLTLTCTVSGFSLTNYGVNWIRQPPRKALEWLAVIWSRGNTDYNAAFISRLTISKDTSKSQVVLKMTNMDPVDTATYYCARKDAVVATDALDYWGQGTTVTVSS VL: DIQMTQSHKFLSASVGDRVTITCKASQDVSTAVAWYQQKPGKSPKLLIYSTSYRYTGVPSRFSGSGSGTDFTFTISSLQPEDIATYYCQQHYSTPYTFGGGTKVEIKR

Reference: patent EP4703388A1 (Jiangsu Hengrui Pharmaceuticals Co., Ltd., dated 2024)
